From patent US10487307B2, “Culture method for pluripotent stem cells” (FUJIFILM CORPORATION, priority 2013, dated 2019)

B1: RCP-11: recombinant polypeptide for culture, SEQ ID NO: 25; vitronectin positions 1-55, 269-277, 295-341, 342-373, C274S (protein)
chain: MDQESCKGRCTEGFNVDKKCQCDELCSYYQSCCTDYTAECKPQVTRGDVFTMPEDESQEESEGSEDIFELLFWGRTSAGTRQPQFISRDWHGVPGQVDAAMAGRIYISGMAPRPSLAKKQRFRHRNRKGYRSQRGHSRGRNQN
modifications: Vitronectin-derived Recombinant Protein (RCP-11)
notes: vitronectin positions 1-55, 269-277, 295-341, 342-373, C274S
B2: RCP-5: recombinant polypeptide for culture, SEQ ID NO: 19; vitronectin positions 1-55, 302-341, 342-373 (protein)
chain: MDQESCKGRCTEGFNVDKKCQCDELCSYYQSCCTDYTAECKPQVTRGDVFTMPEDEFWGRTSAGTRQPQFISRDWHGVPGQVDAAMAGRIYISGMAPRPSLAKKQRFRHRNRKGYRSQRGHSRGRNQN
modifications: Vitronectin-derived Recombinant Protein (RCP-5)

Assays:
human iPS cells ("Tic") = experiment: Cell growth property evaluation 1 (different media); format: cell-based; conditions: for cell growth properties with Essential 8 or NutriStem not containing 2-mercaptoethanol versus media containing it: Table 11; for Cell growth rate: polypeptide 100 μg/ml, 72 hours, RCP-11 with Essential 8 = 100%, n=3
Protocol: Furthermore, for evaluation, human iPS cells (“Tic”) that were retention-cultured as described in <Cell adhesiveness evaluation 1> of reference example were treated with TrypLE Select (Invitrogen) for 5 minutes at 37° C. and separated into a single cell. After being subjected to centrifugation for 2 minutes at 300 rpm, the cells were collected, suspended in each medium, and used for the evaluation in each example. Herein, Y-27362 ((R)-(+)-trans-N-(4-pyridyl)-4-(1-aminoethyl)-cyclohexane carboxamide.2HCl.H2O, an Rho binding kinase inhibitor, Wako Pure Chemical Industries, Ltd.) was added to all of the media at a final concentration of 10 μM.
Each of RCP-11, RCP-5, and recombinant laminin (Human Recombinant Laminin-511: BIOLAMINA AB) as control was added to and suspended in a predetermined buffer (a dialysis buffer used in <GRAVY value and aggregation characteristics> of reference examples for RCP-11 and RCP-5, and PBS for the recombinant laminin) at the final concentration shown in Table 11, thereby preparing polypeptide solutions. The polypeptide solutions were added to the respective wells of a plasma-treated 96-well plate made of polystyrene (BD Falcon) having a plasma-treated cell culture surface and held as they were so as to be adsorbed onto the plate for 2 hours at 37° C. In this way, a peptide-treated 96-well plate having a polypeptide-coated surface was obtained. The iPS cells suspended in the respective media shown in Table 11 were seeded into the respective wells of the obtained peptide-treated 96-well plate at a cell density of 10,000 cells/well. After the cells were cultured for 72 hours, nonadhesive cells were washed off with PBS, and only adhesive cells were immobilized using 4% by mass of paraformaldehyde (Wako Pure Chemical Industries, Ltd.). By using an Attophos (registered trademark) AP Fluorescent Substrate System (Promega Corporation), the ALP activity was calculated, and from the calibration curve, the number of undifferentiated iPS cells having the ALP activity was calculated. In Table 11, the cell adhesion rate is expressed as a ratio calculated by regarding the number of pluripotent stem cells after the culture for 72 hours in a combination of RCP-11 and Essential 8 as being 100%. n=3.
In Table 11, “% by mass” in the concentration of 2-meracptoethanol is a proportion (w/v %) of mass (g) of 2-meracptoethanol per 100 mL of the total volume of the medium at the time of culture.

[1] = Evaluation 1 about amount of residual polypeptide adsorbed (ELISA, media); format: physicochemical; conditions: for Residual rate of polypeptide (%): four days after the starting of culture, amount adsorbed immediately after start = 100, coated at 100 μg/ml; for residual rate of adsorbed polypeptide, medium not containing versus containing 2-mercaptoethanol: FIGS. 5 and 6 and Table 13
Protocol: RCP-11 and RCP-5 were prepared by using a predetermined buffer (the dialysis buffer used in <GRAVY value and aggregation characteristics> of reference examples) such that their concentration became 100 μg/ml. The polypeptides were added to the respective wells of a plasma-treated 96-well plate made of polystyrene having a plasma-treated cell culture surface and held as they were for 2 hours at 37° C. so as to be adsorbed onto the plate, thereby obtaining a polypeptide-coated surface. After the wells were washed with PBS, the respective media were added thereto, followed by incubation at 37° C. for a predetermined time. The wells were washed with PBS, and then 20% by mass of an immunoblocking solution (DS Pharma Biomedical Co., Ltd.) was added thereto, followed by incubation for 30 minutes at 37° C., thereby performing a blocking treatment. After the wells were washed with PBS-T (PBS containing 0.05% by mass of Tween-20), 5% by mass of an immunoblocking solution (DS Pharma Biomedical Co., Ltd.) containing an anti-human vitronectin antibody (Thermo Fisher Scientific Inc.) was added thereto, followed by incubation for 2 hours at room temperature. After the wells were washed with PBS-T, a 5% by mass of immunoblocking solution (DS Pharma Biomedical Co., Ltd.) containing an HRP-labeled anti-IgG antibody (Thermo Fisher Scientific Inc.) was added thereto, followed by incubation for 1 hour at room temperature. After the wells were washed with PBS-T, a TMB Substrate (Wako Pure Chemical Industries, Ltd.) was added thereto for developing color, and then 1 N hydrochloric acid was added thereto to stop the color reaction. By using a plate reader, the absorbance was measured, and the amount of the residual RCP-11 and RCP-5 was determined (absorption wavelength: 450 nm, control wavelength: 650 nm).
In Table 13, the residual rate of RCP-11 and RCP-5 is expressed as a ratio (%) calculated by regarding the amount of the polypeptides adsorbed immediately after the starting of culture as being 100.

iPS cells = experiment: Example 6: evaluation of undifferentiated state maintainability (10 passages); format: cell-based, human; conditions: for shape of iPS cells after 10 passages: Essential 8 and NutriStem not containing 2-mercaptoethanol, FIGS. 8A to 8D
Protocol: iPS cells were seeded onto cell culture surfaces coated with RCP-11 and RCP-5 and cultured in Essential 8. Every five to seven days after seeding, cell culture surfaces coated with RCP-11 and RCP-5 were newly prepared. The iPS cells were treated with TryPLE Select, separated into a single cell, and then collected. Thereafter, the iPS cells were subcultured by being seeded onto the newly prepared cell culture surfaces coated with RCP-11 and RCP-5. Under the conditions described above, the cells were cultured for 10 passages.
The iPS cells cultured for 10 passages on the RCP-11-coated surface were immobilized using 4 v/v % paraformaldehyde, and the membrane permeability was enhanced by using 1% by mass of Triton-X/PBS. After the cells were subjected to a blocking treatment using an Image IT Signal Enhancer (Invitrogen), an anti-NANOG antibody (AF 1997, R&D Systems, Inc.), an anti-OCT 3/4 antibody, an anti-SSEA-3 antibody, an anti-S SEA-4 antibody, a anti-Tra-1-60 antibody, and an anti-Tra-1-81 antibody (Stemcell Technologies Inc), an Alexa Fluor 555 binding rabbit anti-goat IgG antibody (Invitrogen), an FITC binding goat anti-mouse IgM antibody (Stemcell Technologies Inc), and DAPI (Dojindo Molecular Technologies, Inc.) were added thereto for labeling, and the cells were imaged using a fluorescence microscope.
In FIGS. 8A to 8D, the images on the left side are full images of the colony, and the images on the right side are magnified images. The scale bar in FIGS. 8A to 8D indicates 500 μm.
In FIGS. 9A to 9F, each of the images of stained cells is an image of stained iPS cells cultured on the RCP-11-coated surface by using Essential 8. The images on the left side are images of the cells stained with DAPI, and the images on the right side are images of the cells stained with NANOG (FIG. 9A), OCT 3/4 (FIG. 9B), SSEA-3 (FIG. 9C), SSEA-4 (FIG. 9D), Tra-1-60 (FIG. 9E), and Tra-1-81 (FIG. 9F). The scale bar in FIGS. 9A to 9F indicates […].

[2] = medium Essential8, 2-mercaptoethanol 0, 10,000 cells/well
[3] = medium NutriStem, 2-mercaptoethanol 0
[4] = medium ReproFF2, 2-mercaptoethanol 102.4 μM (0.0008% by mass)
[5] = medium StemPro hESC SFM, 2-mercaptoethanol 100 μM (0.00078% by mass)
[6] = medium TeSR2, 2-mercaptoethanol 48.6 μM (0.00038% by mass)

Row | Molecule | cell growth properties with Essential 8 or NutriStem not containing 2-mercaptoethanol versus media containing it (human iPS cells ("Tic")) | Cell growth rate (human iPS cells ("Tic"); [2]) | Cell growth rate (human iPS cells ("Tic"); [3]) | Cell growth rate (human iPS cells ("Tic"); [4]) | Cell growth rate (human iPS cells ("Tic"); [5]) | Cell growth rate (human iPS cells ("Tic"); [6]) | Residual rate of polypeptide (%) ([1]; Essential8) | residual rate of adsorbed polypeptide, medium not containing versus containing 2-mercaptoethanol [1] | Residual rate of polypeptide (%) ([1]; NutriStem) | Residual rate of polypeptide (%) ([1]; ReproFF2) | Residual rate of polypeptide (%) ([1]; Stempro hESC SFM) | Residual rate of polypeptide (%) ([1]; TeSR2) | expression of markers specific to undifferentiated cells (iPS cells; Essential 8, 10 passages, immunostaining, FIGS. 9A to 9F) | shape of iPS cells after 10 passages (iPS cells)
1 | B1 | better | 100% | 129.1% | 84.7% | 13.6% | 71.8% | 71.8% | decreases further with the passage of time | 63.5% | 42.0% | 29.4% | 49.9% | expressed NANOG, OCT 3/4, SSEA-3, SSEA-4, Tra-1-60, and Tra-1-81 | shape specific to undifferentiated cells
2 | B2 | better | 84.4% | 123% | 70.3% | 20.1% | 54.4% | 65.6% | decreases further with the passage of time | 62.5% | 42.1% | 35.3% | 44.0% | – | shape specific to undifferentiated cells
